These results are taken from US20190264194A1.

Assay [1] deals with OmpA with T7⋅tag epitope inserted into loop 1 (Escherichia coli) (UniProt P0A910). In words: flow cytometry of whole cells, biotinylated mAb then streptavidin-phycoerythrin. On the technique in general: In flow cytometry, cells or beads pass a laser one at a time.
The target in assay [2] is OmpA with T7⋅tag epitope inserted into loop 4 (Escherichia coli) (UniProt P0A910). The assay is described as above.

anti-T7⋅tag monoclonal antibody gave a fold fluorescence above background control cells in assay [1] of 300 fold. This substance also had a fold fluorescence above background cellular autofluorescence in assay [2] of 2 fold.
